Source: PMC12691273

B1: chicken forkhead box O1 (FOXO1) wild-type [chicken] / Ran protein [chicken (endogenous in granulosa cells)] (parent)
chain 1: MAEAPQLVDIDPDFEPLPRPRSCTWPLPRPEFNPPSSATSSPAPSCGGQPDGAAAAGAAVAVAASGALSADFISNLCLVEESEDFALPPAAAAPPESAACRCGDFSAPEAGCRLHPPGPPPVPPVPPAVAALSPGPVAGQPRKSSSSRRNAWGNLSYADLITKAIESSPEKRLTLSQIYEWMVKSVPYFKDKGDSNSSAGWKNSIRHNLSLHSKFIRVQNEGTGKSSWWMLNPEGGKSGKSPRRRAASMDNNSKFAKSRGRAAKKKASLQSGQEGNGDSPGSQFSKWPASPSSHSNDDFDNWSTFRPRTSSNASTISGRLSPILPEQDDLGDGDVHSMVYPSSATKMTSTLPSLSEMSSSENMENLLDNLNLLSPNTSMTVSTQSSSAALMQQTPGYSFASSTTSICSPNPDYRKFTYAQASMNSLPQIPMQTLQDSKSSYGSMSQFNCPAGLLKELLTSDSPPHNDILASVDTGVSQAGGRALGQGVLMVTNSVMPTYGNQPPHNKMMNPNARPHQGHNQPTPAVNGRALSHTVNPMSHTSCLNRLSTVKTSLQVPMSHQMQMNAMNPYAPVNSCNGYGRVGIVSLHQEKLPSDLDDMLIERLDCDMESIIRNDLMDGETLDFNFDSVLPNQSFQHSVKTTTHSWVSG
chain 2: not shown

Variants of: B1
Test: co-immunoprecipitation (IP FOXO1, WB Ran), band quantification
Conditions: with Ran protein [chicken (endogenous in granulosa cells)]
[1] = with 740-Y-P, n = 3, read off a plot
[2] = with Ly294002, n = 3, read off a plot

Variant	response [1]	response [2]
chain 1 S248A	1.2	0.28
chain 1 S311A	1.3	0.33
